Experimental data as given in patent US20160355591A1 (published 2016).

Assays:
[1] = target: T1, HLA-DR (human leukocyte antigen-DR) on human lymphoma and leukemia cells and human lymphocytes (human, UniProt P01903 26-254; P01911 30-266); assay: direct cell surface saturation binding of 125I-labeled antibody to Daudi cells, 4 C, Scatchard plot; apparent dissociation constant
T1 construct: whole, on cells; Natural antigen on Raji, Daudi, Ramos, Namalwa and other cell lines; also called cell surface antigen (Ag) recognized by L243
Protocol: The cell-associated radioactivity was counted, specific binding of radiolabeled antibody to the cell surface antigen calculated, and Scatchard plot analysis was then applied to determine the maximum number of binding sites per cell and the apparent antigen-binding affinity constant.
To measure specific cell surface antigen binding, two sets of cells were prepared and used in the binding assay to estimate the non-specific and total binding of radioactivities, respectively. The cells for non-specific binding were pre-incubated with excess amount of unlabled Ab to block all surface antigen sites prior to adding the radiolabeled antibody, while those for total binding were pre-incubated in PBS. […] The cell-associated radioactivity was counted. The specific cell surface binding of the radiolabeled antibody at a given concentration of radiolabeled antibody was calculated as: the counts of total binding minus the counts of non-specific binding.

[2] = target: T1, HLA-DR (human leukocyte antigen-DR) on …; assay: competition cell-binding assay, unlabeled antibody against 125I-labeled L243 antibody on human lymphoma cells (FIG. 6: Raji)
Protocol: (§1) Unbound Abs were removed by washing the cells in PBS. The radioactivity associated with cells was determined after washing.

[3] = target: T1, HLA-DR (human leukocyte antigen-DR) on …; assay: competition cell-binding assay on human lymphoma cells; reference mL243
Protocol: as §1

| Binder | Kd [1] | EC50 [2] | fold stronger binding avidity than mL243 [3] |
| --- | --- | --- | --- |
| mL243 (murine L243 anti-HLA-DR monoclonal antibody, IgG2a, ATCC HB55) (antibody, V domains shown, Murine IgG2a from hybridoma ATCC HB55; also called mL234; L234) VH: QIQLVQSGPELKKPGETVKISCKASGFTFTNYGMNWVKQAPGKGLKWMGWINTYTREPTYADDFKGRFAFSLETSASTAYLQINNLKNEDTAKYFCARDITAVVPTGFDYWGQGTTLTVSS VL: DIQMTQSPASLSVSVGETVTITCRASENIYSNLAWYRQKQGKSPQLLVFAASNLADGVPSRFSGSGSGTQYSLKINSLQSEDFGDYYCQHFWTTPWAFGGGTNLEIKR | 14 nM | ~16.5 nM |  |
| hL243γ4P (IMMU-114; humanized L243, IgG4/K isotype with Ser241Pro hinge mutation) (antibody, V domains shown, Same V regions as hL243; also called hL243g4P; hL243gamma4P) VH: QVQLQQSGSELKKPGASVKVSCKASGFTFTNYGMNWVKQAPGQGLKWMGWINTYTREPTYADDFKGRFAFSLDTSVSTAYLQISSLKADDTAVYFCARDITAVVPTGFDYWGQGSLVTVSS VL: DIQLTQSPSSLSASVGDRVTITCRASENIYSNLAWYRQKPGKAPKLLVFAASNLADGVPSRFSGSGSGTDYTFTISSLQPEDIATYYCQHFWTTPWAFGGGTKLQIKR | 2.6 nM | ~7 nM | ~2 fold |
